From patent US20200247894A1 (Regeneron, published 2020)

Experiments:
[1] = molecular target: T1, human IL-2Rγ endogenously expressed on NK-92 and Jurkat cells (human, UniProt P31785 23-369); assay: flow cytometry, 10 ug/ml antibody, NK-92 cells (endogenous human IL-2Rg)
T1 construct: whole, on cells; on cells it stands with the other receptor subunits of the cell line; also called IL-2Rg; CD132
T1 sequence (looked up): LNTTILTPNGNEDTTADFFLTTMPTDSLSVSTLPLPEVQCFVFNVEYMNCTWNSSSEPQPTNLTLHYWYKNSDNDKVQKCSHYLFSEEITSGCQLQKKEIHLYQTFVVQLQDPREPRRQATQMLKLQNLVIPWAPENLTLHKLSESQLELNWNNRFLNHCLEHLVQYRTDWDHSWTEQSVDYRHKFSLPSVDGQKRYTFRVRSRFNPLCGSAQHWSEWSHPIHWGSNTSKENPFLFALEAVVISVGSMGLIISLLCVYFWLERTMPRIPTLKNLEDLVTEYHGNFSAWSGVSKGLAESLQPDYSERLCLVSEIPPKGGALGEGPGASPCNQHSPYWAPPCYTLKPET
Protocol: (§1) For flow cytometry analyses, the cells were pre-incubated with mouse IgG at 100 μg/ml for 15 minutes at room temperature (RT) to block the binding of the antibodies to Fc receptors. […] Cells were washed, fixed using BD CytoFix™ (BD biosciences, #554655) and analyzed on an IQue® (Intellicyt®) Flow Cytometer or Accuri Flow cytometer (BD). […] The results were analyzed using ForeCyt® (IntelliCyt®) software to determine the geometric means of fluorescence (MFI) for viable cells. Binding ratios were calculated by normalizing the MFI of the test sample by the MFI of the unstained sample.

[2] = molecular target: T2, mouse IL-2Rγ endogenously expressed on MC/9 cells (mouse, UniProt P34902 23-369); assay: flow cytometry, 10 ug/ml antibody, MC/9 cells (endogenous mouse IL-2Rg)
T2 construct: whole, on cells
T2 sequence (looked up): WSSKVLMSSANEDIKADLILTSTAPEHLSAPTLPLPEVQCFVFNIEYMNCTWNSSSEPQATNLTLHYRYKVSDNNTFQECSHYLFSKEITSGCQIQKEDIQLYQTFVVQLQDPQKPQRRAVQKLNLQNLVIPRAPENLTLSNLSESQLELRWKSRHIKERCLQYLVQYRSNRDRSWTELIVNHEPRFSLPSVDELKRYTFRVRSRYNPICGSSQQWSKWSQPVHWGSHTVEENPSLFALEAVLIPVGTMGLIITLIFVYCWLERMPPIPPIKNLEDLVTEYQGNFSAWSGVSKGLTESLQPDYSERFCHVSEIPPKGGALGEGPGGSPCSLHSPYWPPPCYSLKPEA
Protocol: as §1

[3] = molecular target: T1, human IL-2Rγ endogenously expressed on …; assay: flow cytometry, 10 ug/ml antibody, Jurkat cells (endogenous human IL-2Rg)
Protocol: as §1

Binding Ratio (Sample over unstained MFIs) [1] | Raw MFI [1] | Binding Ratio (Sample over unstained MFIs) [2] | Raw MFI [2] | Binding Ratio (Sample over unstained MFIs) [3] | Raw MFI [3] | Binder
84 | 12500 MFI | 1 | 187 MFI | 18 | 1570 MFI | H4H12922P2 (antibody, human IgG4 S228P, kappa, V domains shown, fully human anti-IL2Rg antibody, human IgG4; also called REGN7256) VH: QVQLVESGGGVVKPGGSLRLSCAASGFTFSNSGIHWVRQAPGKGLEWVALISYAGSNKYYADSVKGRFTISRDNSKNTLSLQMNSLRAEDTAVYYCAKEVWTGTYDSFDMWGRGTMVTVSS VL: not shown
12 | 1850 MFI | 1 | 175 MFI | 2 | 179 MFI | H4H12926P2 (antibody, human IgG4 S228P, kappa, V domains shown, fully human anti-IL2Rg antibody, human IgG4) VH: QVQLQQSGPGLVKPSQTLSLTCAISGDSVSSNIAAWNWIRLSPSRGLEWLGRTFFRSTWFYDYSLSVKGRITINPDTSKNQFSLHLNSVTPEDAAVYYCARTGRRWSLDYWGQGTLVTVSS VL: not shown
2 | 231 MFI | 1 | 192 MFI | 1 | 104 MFI | H4H12924P2 (antibody, human IgG4 S228P, kappa, V domains shown, fully human anti-IL2Rg antibody, human IgG4) VH: EVQLVESGGGLVQPGRSLRLSCAASGFTLEDYAMHWVRQAPGKGLEWVSGISWNRGSTGYADSVKGRFTISRDNAKNSLYLQMTSLRAEDTALYYCAKGFYSMDVWGQGTTVTVSS VL: not shown
92 | 13700 MFI | 1 | 184 MFI | 18 | 1620 MFI | H4H12871P (antibody, human IgG4 S228P, kappa, V domains shown, fully human anti-IL2Rg antibody, human IgG4; also called REGN9434) VH: QVQLQESGPGLVKPSQTLSLTCTVSGGSITSGGYYWSWIRQYPGQGLEWIGYIYYSGKTYYNPSFTSRITISVDTSKKQFSLKMSSVTAADTAVYYCARAGFTSSNGWFDPWGQGTLVTVSS VL: DIQMTQSPSSLSASVGDRVTITCRASQNIRSYLNWYQQKPGKAPKLLIYSASSLQSGVPSRFSGSGSGTDFTLTISSLQPEDFPTYYCQQTYSSPWTFGPGTKVEIKR
44 | 6580 MFI | 1 | 202 MFI | 6 | 507 MFI | H4H12874P (antibody, human IgG4 S228P, kappa, V domains shown, fully human anti-IL2Rg antibody, human IgG4) VH: QVQLVESGGGVVQPGRSLRLSCAASGFNFRNFGMHWVRQAPGKGLEWVAGILYDGSSKYYADSVKDRFTISRDNSKNTLFLQMNSLRAEDTAMYYCAKEEDTAMVPFDSWGPGTLVTVSS VL: DIQLTQSPSFLSASVGDRVTITCWASQGISSYLAWYQQKPGKAPTLLIYAASTLQSGVPSRFSGSGSGTEFTLTISSLQPEDFASYYCQQLKSYPLTFGGGTKVEIKR
18 | 2670 MFI | 1 | 167 MFI | 1 | 114 MFI | H4H12899P (antibody, human IgG4 S228P, kappa, V domains shown, fully human anti-IL2Rg antibody, human IgG4) VH: QVQLVESGGDLVKPGGSLRLSCATSGFTFSDFYMTWIRQAPGKGLEWISYISNSGSIVKYADSVKGRFTISRDNAKNSLYLQMNSLRAEDTAIYYCARFYGDRWGQGTLVTVSS VL: DIQLTQSPSFLSASVGDRVTITCWASQGISTFLAWYQQKPGKAPKLLIYAASTLQSGVPSRFSGSGSGTDFTLTISSLQPEDFATYHCQQLNNYPWTFGQGTKVEIKR
28 | 4200 MFI | 1 | 128 MFI | 1 | 110 MFI | H4H12900P (antibody, human IgG4 S228P, kappa, V domains shown, fully human anti-IL2Rg antibody, human IgG4) VH: QVQLVESGGGLVKPGGSLRLSCEASGFTFNDFYMTWIRQAPGKGLEWIAYISKSGDKMRYADSVKGRFSTSRDNAKNSLSLQMNSLRAEDTAVYYCARFYGDIWGQGTLVTVSS VL: DIQLTQSPSFLSASVGDRVTITCWASQDISSFLVWYQQKPGKAPNLLIYAASALQSGVPSRFSGSGSGTEFTLTISSLQPEDFASYYCEQLNNYPWTFGQGTKVEIKR
90 | 13500 MFI | 1 | 172 MFI | 16 | 1420 MFI | H4H12884P (antibody, human IgG4 S228P, kappa, V domains shown, fully human anti-IL2Rg antibody, human IgG4) VH: QVQLQESGPGLVKPSQTLSLTCTVSGGSISSGGYYWSWIRQHPGKGLEWIGFIYYSGKTYYNPSLKSRLTISVDTSKSQFSLKLRSVTAADTAVYYCARLGYTNSAGWFDPWGQGTLVTVSS VL: DIQMTQSPSSLSASVGDRVTITCRASQSISSYLNWYQQKPGKAPNLLIYAASSLQSGVPSRFSGSGSGTDFTLTISSLQPEDLATYYCQQSYTTPFTFGPGTKVDIKR
30 | 4570 MFI | 1 | 170 MFI | 6 | 500 MFI | H4H12890P (antibody, human IgG4 S228P, kappa, V domains shown, fully human anti-IL2Rg antibody, human IgG4) VH: EVQLVESGGGLVQPGGSLRLSCAASGFTFNNYAMHWVRQAPGKGLEYVSSISSSGGSTYYEDSVKGRFTISRDNSKNTLYLQMGSLRAEDMAVYYCARSFYGSGTYYDTFDMWGQGTMVTVSS VL: DIQMTQSPSSLSASIGDRVTITCRASQSISRYLNWYQQKPGKAPKLLIYAASSLQSGVPSRFSASGSGTDFTLTISSLQPEDFATYYCQQSYSTPFTFGQGTKLEIKR
33 | 4910 MFI | 1 | 178 MFI | 5 | 472 MFI | H4H12913P2 (antibody, human IgG4 S228P, kappa, V domains shown, fully human anti-IL2Rg antibody, human IgG4) VH: EVQLVESGGGVVRPGGSLRLSCAASGFTFDDYGMSWVRQAPGKGLEWISSINRNGGSADYADSVKGRFTISRDNAKNSLFLQMSSLRAEDTALYHCASGEFRFDYWGQGTLVTVSS VL: not shown
23 | 3490 MFI | 1 | 191 MFI | 4 | 315 MFI | H4H12927P2 (antibody, human IgG4 S228P, kappa, V domains shown, fully human anti-IL2Rg antibody, human IgG4) VH: EVQLVESGGGVVRPGGSLRLSCATSGFTFDDYGMSWVRQVPGKGLEWVSSVNRNGGTTDYADSVKGRFTISRDNAKRSLFLQMNSLRAEDTALYHCATGELFFDYWGQGTLVTVSS VL: not shown
17 | 2540 MFI | 1 | 154 MFI | 1 | 86 MFI | H4H12908P (antibody, human IgG4 S228P, kappa, V domains shown, fully human anti-IL2Rg antibody, human IgG4) VH: EVQLVESGGRLVQPGGSLRLSCEASGFTFSNYGMTWVRQAPGKGLEWVSVISGSDNRKYYAESVKGRFTISRDNSKNTLYLQMNSLRAEDTAVYYCAKLGYSRSSKDFYYGMDVWGQGTTVTVSS VL: not shown
32 | 4720 MFI | 1 | 185 MFI | 6 | 488 MFI | H4H12886P (antibody, human IgG4 S228P, kappa, V domains shown, fully human anti-IL2Rg antibody, human IgG4) VH: EVQLVESGGGLVKPGGSLRLSCAASGFTFSTAWMSWVRQSPGRGLEWVGRMKSKTDGGTTFYAAPVKGRFTISRDDSKNTLYLQMNSLKTEDTAVYYCTTGLVPAFYKYYGVDVWGQGTTVTVSS VL: DIQMTQSPSSLSASVGDRITITCQASQDITNYLNWYQQKPGKAPNLLIYDASNLVTGVPSRFSGSGSGTDFTFTILSLQPEDIATYYCQQYDSLLTFGPGTKVDIKR
94 | 14100 MFI | 1 | 91 MFI | 19 | 1660 MFI | H4H12889P (antibody, human IgG4 S228P, kappa, V domains shown, fully human anti-IL2Rg antibody, human IgG4; also called REGN7257) VH: EVQLVESGGGLVQPGGSLRLSCAASGFIFSSYEMHWVRQAPGKGLEWISYISSSGTTIYYADSVKGRFTISRDNAKNSLYLHMNSLRAEDTAVYYCTRARITGTFDVFDIWGQGTMVTVSS VL: DIQMTQSPSSLSASVGDRVTITCRASQSISSYLNWYQQKPGKAPKLLIFAASNLQSGVPSRFSGSRSGTDFTLTISSLQPEDFATYYCQQNYNIPYTFGQGTKLEIKR
